# Laboratory results taken from paper PMC2836954 (Molecular Biology of the Cell, 2010).
# B1: EGFP-PKD2-WT (protein kinase D2, wild type) (enzyme, UniProt Q9BZL6 1-878, looked up)
# chain: MATAPSYPAGLPGSPGPGSPPPPGGLELQSPPPLLPQIPAPGSGVSFHIQIGLTREFVLLPAASELAHVKQLACSIVDQKFPECGFYGLYDKILLFKHDPTSANLLQLVRSSGDIQEGDLVEVVLSASATFEDFQIRPHALTVHSYRAPAFCDHCGEMLFGLVRQGLKCDGCGLNYHKRCAFSIPNNCSGARKRRLSSTSLASGHSVRLGTSESLPCTAEELSRSTTELLPRRPPSSSSSSSASSYTGRPIELDKMLLSKVKVPHTFLIHSYTRPTVCQACKKLLKGLFRQGLQCKDCKFNCHKRCATRVPNDCLGEALINGDVPMEEATDFSEADKSALMDESEDSGVIPGSHSENALHASEEEEGEGGKAQSSLGYIPLMRVVQSVRHTTRKSSTTLREGWVVHYSNKDTLRKRHYWRLDCKCITLFQNNTTNRYYKEIPLSEILTVESAQNFSLVPPGTNPHCFEIVTANATYFVGEMPGGTPGGPSGQGAEAARGWETAIRQALMPVILQDAPSAPGHAPHRQASLSISVSNSQIQENVDIATVYQIFPDEVLGSGQFGVVYGGKHRKTGRDVAVKVIDKLRFPTKQESQLRNEVAILQSLRHPGIVNLECMFETPEKVFVVMEKLHGDMLEMILSSEKGRLPERLTKFLITQILVALRHLHFKNIVHCDLKPENVLLASADPFPQVKLCDFGFARIIGEKSFRRSVVGTPAYLAPEVLLNQGYNRSLDMWSVGVIMYVSLSGTFPFNEDEDINDQIQNAAFMYPASPWSHISAGAIDLINNLLQVKMRKRYSVDKSLSHPWLQEYQTWLDLRELEGKMGERYITHESDDARWEQFAAEHPLPGSGLPTDRDLGGACPPQDHDMQGLAERISVL
# What was measured:
# Assay in all cases: pull-down
# [1] = target: the active ARF1 mutants ARF-Q71L and ARF1-Δ17-Q71L
# GST-ARF1 Δ17-Q71L = GST-ARF1 Δ17-Q71L (human, UniProt P84077 18-181, Q71L)
# Chain of GST-ARF1 Δ17-Q71L (P84077 18-181 Q71L): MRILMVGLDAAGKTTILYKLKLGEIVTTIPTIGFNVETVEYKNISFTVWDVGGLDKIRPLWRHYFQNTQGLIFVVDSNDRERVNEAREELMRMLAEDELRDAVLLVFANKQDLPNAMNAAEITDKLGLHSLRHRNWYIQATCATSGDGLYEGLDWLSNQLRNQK
# GST-ARF1-Q71L = GST-ARF1-Q71L (human, UniProt P84077 1-181, Q71L)
# Chain of GST-ARF1-Q71L (P84077 whole entry Q71L): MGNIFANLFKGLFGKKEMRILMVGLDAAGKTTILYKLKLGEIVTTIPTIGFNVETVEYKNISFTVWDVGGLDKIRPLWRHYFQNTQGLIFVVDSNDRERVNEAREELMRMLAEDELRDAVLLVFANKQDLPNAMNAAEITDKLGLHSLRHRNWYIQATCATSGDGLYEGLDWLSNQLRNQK
Molecule,fold binding compared with wild-type or dominant-negative ARF1 [1] [fold],fold binding compared with ARF1-WT (GST-ARF1 Δ17-Q71L) [fold],fold binding compared with ARF1-WT or ARF1-T31N (GST-ARF1-Q71L) [fold]
His-tagged C1b domain of PKD2 (domain or fragment),1.5 to 1.75,–,–
B1,–,2,2
